In US20210214447A1 (SHANGHAI INSTITUTE OF MATERIA MEDICA CHINESE ACADEMY OF …, published 2021):
Several values for one entry are separate records, joined by “and”; a condition that tells them apart may be missing. Identical values can stand only once. Like-named read-outs stand apart in the source and are kept apart here. Values belong to the binder of their own block, whether it stands above or below them.

Legend:
[1] = biological target: T1, extracellular domain of human AXL protein (AXL-ECD) (human, UniProt P30530 31-449); experiment: ELISA, AXL-ECD
T1 construct: expressed in HEK293T cells; coated on the ELISA plate; also called AXL-ECD protein; human AXL extracellular domain protein
T1 sequence: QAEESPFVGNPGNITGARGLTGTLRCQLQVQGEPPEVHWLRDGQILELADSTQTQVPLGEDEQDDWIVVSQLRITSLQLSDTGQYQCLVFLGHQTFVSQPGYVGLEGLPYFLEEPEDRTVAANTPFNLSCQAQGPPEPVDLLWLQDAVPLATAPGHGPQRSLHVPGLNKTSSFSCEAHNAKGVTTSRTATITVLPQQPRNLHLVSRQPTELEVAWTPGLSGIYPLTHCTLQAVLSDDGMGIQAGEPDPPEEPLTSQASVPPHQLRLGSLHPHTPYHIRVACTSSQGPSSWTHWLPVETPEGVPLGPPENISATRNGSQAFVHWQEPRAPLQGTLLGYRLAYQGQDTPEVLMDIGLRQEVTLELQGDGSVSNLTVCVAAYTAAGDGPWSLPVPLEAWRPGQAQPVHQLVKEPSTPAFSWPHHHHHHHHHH

[2] = biological target: T2, human AXL on the surface of tumor cells (human, UniProt P30530 26-894); experiment: FACS on MDA-MB-231 cells, mean EC50
T2 construct: whole, on cells; endogenous protein of human tumor cell lines; the cell line is named under assay or readout; also called AXL on the cell surface
T2 sequence (looked up): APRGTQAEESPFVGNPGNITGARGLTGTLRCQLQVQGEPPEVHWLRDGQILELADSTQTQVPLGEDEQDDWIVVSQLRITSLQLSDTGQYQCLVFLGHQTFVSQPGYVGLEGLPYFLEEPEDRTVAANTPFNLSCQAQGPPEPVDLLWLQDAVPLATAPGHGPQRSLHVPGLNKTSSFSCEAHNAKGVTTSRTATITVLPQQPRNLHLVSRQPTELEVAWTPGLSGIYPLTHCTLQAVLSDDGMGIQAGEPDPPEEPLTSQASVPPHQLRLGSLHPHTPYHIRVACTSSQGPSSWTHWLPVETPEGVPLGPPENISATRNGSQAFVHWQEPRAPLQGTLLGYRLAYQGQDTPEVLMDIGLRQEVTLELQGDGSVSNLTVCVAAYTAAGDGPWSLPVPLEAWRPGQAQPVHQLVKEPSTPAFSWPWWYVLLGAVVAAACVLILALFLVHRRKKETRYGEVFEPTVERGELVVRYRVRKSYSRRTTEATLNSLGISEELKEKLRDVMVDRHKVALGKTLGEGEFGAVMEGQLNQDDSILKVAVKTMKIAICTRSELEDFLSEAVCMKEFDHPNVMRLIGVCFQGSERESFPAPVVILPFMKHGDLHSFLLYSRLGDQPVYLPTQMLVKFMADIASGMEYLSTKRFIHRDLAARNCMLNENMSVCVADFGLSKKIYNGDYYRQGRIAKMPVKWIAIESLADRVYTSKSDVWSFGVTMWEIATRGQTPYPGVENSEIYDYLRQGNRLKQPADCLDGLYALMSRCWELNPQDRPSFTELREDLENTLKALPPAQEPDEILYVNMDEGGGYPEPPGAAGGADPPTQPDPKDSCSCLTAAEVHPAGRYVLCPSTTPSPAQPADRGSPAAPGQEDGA
Experimental: (§1) Then the obtained solutions were incubated at 4° C. for 1 h, the cells were washed twice with PBS to remove unbound primary antibody, and then the target cells were incubated with 200 μL PE-labeled secondary antibody (2 μg/mL) at 4° C. for 30 min. The cells were washed twice with PBS to remove unbound secondary antibody. Finally, the cells were resuspended in 200 μL PBS, and the binding affinity of the test antibody to AXL on the cell surface was determined by a flow cytometer (FACSCalibur)

[3] = biological target: T1, extracellular domain of human AXL …; experiment: ELISA, plate-coated AXL-ECD
Experimental: (§2) The extracellular domain of AXL protein (AXL-ECD) was diluted to […] with the coating solution, and coated onto ELISA plate with 100 μL/well at 4° C. overnight. The excess antigen was washed off. The plate was blocked with 1% BSA at room temperature for 2 h, then each monoclonal antibody in a 3-fold dilution was added at 100 µL/well. The plate was incubated at room temperature for 1 h; the unbound antibody was washed off, and appropriate concentration of anti-mouse secondary antibody labeled with horseradish peroxidase was added at 100 µL/well. The plate was incubated at room temperature for 0.5 h. The unbound secondary antibody was washed off. TMB Substrate was added and reacted for about 15 minutes. 1N HCL was added at 50 µL/well to stop the color reaction. Then the absorbance was measured at 450 nm and the obtained data was analyzed.

[4] = biological target: T2, human AXL on the surface of tumor cells; experiment: FACS on NCI-H1299 cells
Experimental: as §1
AXL-high-expression lung cancer cells NCI-H1299 were used as target cells. 100 μL of the test antibody diluted in a 3-fold gradient was used as primary antibody, and mixed with 1×10⁵ NCI-H1299 cells suspended in 100 μL RPMI-1640 serum-free medium. The operation method was the same as above. Finally, the cells were resuspended in 200 μL PBS, and the binding affinity of the tested antibody to AXL on the cell surface was determined by a flow cytometer (FACSAria II).

[5] = biological target: T2, human AXL on the surface of tumor cells; experiment: FACS on MDA-MB-231 cells
Experimental: as §1

[6] = biological target: T2, human AXL on the surface of tumor cells; experiment: FACS on MDA-MB-231 cells; remark: listed apart in the source
Experimental: as §1
24 humanized antibodies in Table-6 were diluted by gradient, and their affinities to AXL, on the surface of MDA-MB-231 cells were determined by flow cytometer. The experimental method was referred to Example 8.

[7] = biological target: T2, human AXL on the surface of tumor cells; experiment: FACS, 5 ug/mL antibody, LCLC-103H cells compared with AXL-low MDA-MB-453 cells
Experimental: (§3) 3×10⁵ tumor cells were mixed well with the antibody (final concentration was 5 μg/mL), and then incubated at 4° C. for 1 hour. The cells were washed twice with PBS to remove unbound primary antibody. Then 200 μL ([…]) PE-labeled secondary antibody was added and incubated at 4° C. for 30 min. The cells were washed twice with PBS to remove unbound secondary antibodies. Finally, the cells were resuspended in 200 μL PBS. The Binding affinity of the tested antibody to AXL on the cell surface or the overall binding fluorescence intensity (MFI) of different tumor cells at the same antibody concentration was determined with a flow cytometer (FACSCalibur).
(§4) The chimeric antibody mAb002c could specifically recognize and bind tumor cells with AXL high expression.

[8] = biological target: T1, extracellular domain of human AXL …; experiment: ELISA, plate-coated AXL-ECD; remark: listed apart in the source
Experimental: as §2
24 humanized antibodies in Table-6 were diluted by gradient, and their affinity to AXL-ECD protein was determined by ELISA. The experimental method was referred to Example 4.

[9] = biological target: T2, human AXL on the surface of tumor cells; experiment: FACS, 5 ug/mL antibody, NCI-H1299 cells compared with AXL-low MDA-MB-453 cells
Experimental: as §3, §4

[10] = biological target: T2, human AXL on the surface of tumor cells; experiment: FACS on LCLC-103H cells
Experimental: as §1
The experimental method was referred to Example 8.

[11] = biological target: T3, cynomolgus monkey AXL on the surface of HEK-293T cells (cynomolgus monkey); experiment: FACS on HEK293T cells transiently expressing monkey AXL
T3 construct: transiently expressed in HEK293T cells from pcDNA3.1
Experimental: 3. HEK293T cells were spread to a 50% density in a culture dish, and cultured overnight at 37° C. to a confluence of about 80%. […] of monkey/mouse-AXL vector plasmid prepared above was transiently transfected into the cells with Liposome Lipo2000 (Invitrogen). 24 hours after transfection, the proteins were collected for Western blot analysis, and the cells were collected for FACS to detect the binding activity of Hu002-2 and monkey/mouse AXL on HEK293T cell surface. The FACS detection test method may be referred to Example 18.

- EC50 [1]: 0.073 nM
B1: mAb001 (antibody, V domains shown)
VH: AVQLQESGPSLVKPSQTLSLTCSVTGDSITSGYWSWIRKFPGNKLESMGYMTYSGATYYNPSLKSRISITRDTSKNQYYLQLNSVTPEDTATYYCARGGNSYFFDYWGQGTTLTVSS
VL: DIQMTQSPASLSVSVGETVTITCRASENIYSNLAWYQLKQGKSPHLLVYAATNLADGVPSRFSGSGSGTQYSLKIISLQSEDFGTYYCQHFWGTPLTFGAGTKLELK
notes: murine hybridoma antibody, IgG1/k; also called original murine antibody mAb001

- EC50 [2]: 0.84 nM
- EC50 [3]: 0.092 nM
- Highest reading (OD450 nm) [3]: 3.8 OD450 nm
- EC50 [4]: 1.49 nM
- Highest MFI value (FACSAria II) [4]: 2370 MFI
- Highest MFI value (FACSCalibur) [5]: 217 MFI
B2: mAb001c (antibody, V domains shown)
VH: B1 VH
VL: B1 VL
notes: also called human-mouse chimeric antibody mAb001c

- EC50 [6]: 0.16 nM and 0.169 nM
- EC50 [2]: 0.174 nM
- EC50 [3]: 0.073 nM
- Highest reading (OD450 nm) [3]: 3.79 OD450 nm
- fold difference of binding rate (MFI) against MDA-MB-453 cells [7]: 91 times
- EC50 [8]: 0.082 nM and 0.076 nM
- EC50 [4]: 0.456 nM
- Highest MFI value (FACSAria II) [4]: 2260 MFI
- fold difference of binding rate (MFI) against MDA-MB-453 cells [9]: 127 times
- Highest MFI value (FACSCalibur) [5]: 242 MFI
B3: mAb002c (antibody, V domains shown)
VH: QIQLQQSGPELVKPGASVKISCKASGYPFTDFYINWVKQKPGQGLEWIGWIYPGSGNTKYNEKFKGKATLTVDTSSSTAYMQLSSLTSEDTAVYFCARSTGFFDYWGQGTTLTVSS
VL: QIVLTQSPALMSASPGEKVTMTCSASSSIGYMYWYQQKPRSSPKSWIYLTSNLASGVPARFSGSGSGTSYSLTISSMEAEDAATYYCQQWSSNPPTFGAGTKLELK
notes: also called human-mouse chimeric antibody mAb002c

- EC50 [1]: 0.063 nM
B4: mAb002 (antibody, V domains shown)
VH: B3 VH
VL: B3 VL
notes: murine hybridoma antibody, IgG1/k; also called original murine antibody mAb002

- EC50 [2]: 0.433 nM
- EC50 [10]: 0.8 nM
- EC50 [3]: 0.075 nM
- Highest reading (OD450 nm) [3]: 3.77 OD450 nm
- EC50 [4]: 0.655 nM
- Highest MFI value (FACSAria II) [4]: 2010 MFI
- Highest MFI value (FACSCalibur) [5]: 218 MFI
B5: AXL107 (antibody, V domains shown)
VH: EVQLLESGGGLVQPGGSLRLSCAASGFTFSSYAMNWVRQAPGKGLEWVSTTSGSGASTYYADSVKGRFTISRDNSKNTLYLQMNSLRAEDTAVYYCAKIWIAFDIWGQGTMVTV
VL: not shown
notes: also called control antibody AXL107; AXL07

- EC50 [1]: 0.092 nM
B6: mAb005 (antibody, V domains shown)
VH: QVQLQQSGPELVKPGASVKISCKASGYSFTSYYIHWVQQRPGQGLEWIGWIYPGSDNTKYNEKFKDKATLTADTSSGTAYMQLSSLTSDDSAVFYCARNYYDYDGGTWFPYWGQGTLVTVSA
VL: DIQMTQTTSSLSASLGDRVTISCRASQDINYYLNWYQQKPDGTVKLLIYYTSRLHSRVPSRFSGSGSGTDYSLTISNLEQEDIATYFCQQGNTLPWTFGGGTKLEIK
notes: murine hybridoma antibody, IgG1/k; also called original murine antibody mAb005

- EC50 [2]: 0.4 nM
- EC50 [3]: 0.103 nM
- Highest reading (OD450 nm) [3]: 3.78 OD450 nm
- EC50 [4]: 0.908 nM
- Highest MFI value (FACSAria II) [4]: 2140 MFI
- Highest MFI value (FACSCalibur) [5]: 208 MFI
B7: mAb005c (antibody, V domains shown)
VH: B6 VH
VL: B6 VL
notes: also called human-mouse chimeric antibody mAb005c

- EC50 [6]: 0.112 nM
- Highest MFI value (FACSCalibur) [6]: 278 MFI
- EC50 [10]: 0.37 nM
- EC50 [8]: 0.055 nM
- TOP (OD450) [8]: 3.6 OD450
- EC50 [11]: 0.135 nM
B8: Hu002-2 (antibody, V domains shown)
VH: QVQLVQSGAEVKKPGASVKVSCKASGYPFTDFYINWVRQAPGQGLEWMGWIYPGSGNTKYNEKFKGRVTLTVDTSISTAYMELSRLRSDDTAVYYCARSTGFFDYWGQGTLVTVSS
VL: EIVLTQSPATLSLSPGERATLSCSASSSIGYMYWYQQKPGQAPRLLIYLTSNLASGIPARFSGSGSGTDFTLTISSLEPEDFAVYYCQQWSSNPPTFGQGTKLEIK
notes: humanized from mAb002c; also called Hu002c-2
